Measured values published in US20250346644A1 (LATTICON SUZHOU BIOPHARMACEUTICALS, published 2025).
Positions count from the first letter of the chain named. Names and notes keep the numbering of the source.

T1: high-affinity IL2R expressed on the surface of CTLL-2 cells
T1 sequence (P01590 whole entry, species assumed, looked up): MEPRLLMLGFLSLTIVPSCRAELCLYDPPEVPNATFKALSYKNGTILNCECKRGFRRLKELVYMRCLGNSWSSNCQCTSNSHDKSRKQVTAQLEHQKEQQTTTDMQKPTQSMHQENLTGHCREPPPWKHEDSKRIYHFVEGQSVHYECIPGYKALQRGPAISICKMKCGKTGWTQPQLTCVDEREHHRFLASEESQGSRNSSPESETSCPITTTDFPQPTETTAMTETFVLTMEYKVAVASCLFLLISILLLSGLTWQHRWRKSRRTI
T1 sequence (P16297 whole entry, species assumed, looked up): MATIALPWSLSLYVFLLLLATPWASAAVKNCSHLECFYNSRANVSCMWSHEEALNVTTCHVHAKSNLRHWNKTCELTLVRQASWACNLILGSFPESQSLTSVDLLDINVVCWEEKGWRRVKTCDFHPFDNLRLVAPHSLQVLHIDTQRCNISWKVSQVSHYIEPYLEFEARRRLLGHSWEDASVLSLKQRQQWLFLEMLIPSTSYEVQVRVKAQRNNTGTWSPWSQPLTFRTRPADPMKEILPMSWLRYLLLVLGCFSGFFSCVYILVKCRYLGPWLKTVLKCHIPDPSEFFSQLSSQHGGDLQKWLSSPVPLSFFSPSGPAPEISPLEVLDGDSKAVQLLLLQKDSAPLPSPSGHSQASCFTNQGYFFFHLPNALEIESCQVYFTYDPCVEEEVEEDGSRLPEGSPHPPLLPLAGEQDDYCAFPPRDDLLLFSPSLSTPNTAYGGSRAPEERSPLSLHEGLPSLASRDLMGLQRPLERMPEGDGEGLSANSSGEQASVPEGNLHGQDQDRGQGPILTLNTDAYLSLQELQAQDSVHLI
T1 sequence (P34902 whole entry, species assumed, looked up): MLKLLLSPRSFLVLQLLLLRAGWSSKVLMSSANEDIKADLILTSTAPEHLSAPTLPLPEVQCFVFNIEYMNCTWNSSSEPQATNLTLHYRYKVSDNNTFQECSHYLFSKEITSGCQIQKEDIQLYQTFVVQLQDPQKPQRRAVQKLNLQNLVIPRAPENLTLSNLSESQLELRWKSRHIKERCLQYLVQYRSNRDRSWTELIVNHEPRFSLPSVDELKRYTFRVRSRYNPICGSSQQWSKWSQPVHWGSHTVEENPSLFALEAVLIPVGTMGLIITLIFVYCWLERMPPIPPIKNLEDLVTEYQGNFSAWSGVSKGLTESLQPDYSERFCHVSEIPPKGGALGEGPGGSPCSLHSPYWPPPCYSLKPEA

T2: mIL2-his (mouse, UniProt P04351 21-169)
T2 construct: also called wild-type mouse IL-2 (with a his-tag); not shown: his-tag
T2 sequence (looked up): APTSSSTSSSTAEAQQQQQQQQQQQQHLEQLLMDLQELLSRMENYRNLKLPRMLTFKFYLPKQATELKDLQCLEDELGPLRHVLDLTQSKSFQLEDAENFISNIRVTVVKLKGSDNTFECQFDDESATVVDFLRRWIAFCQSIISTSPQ

T3: hIL2Rβ (hCD122) (human, UniProt P14784 27-239, limits assumed)
T3 construct: bought recombinant protein; also called hCD122 (Acro)
T3 sequence (looked up): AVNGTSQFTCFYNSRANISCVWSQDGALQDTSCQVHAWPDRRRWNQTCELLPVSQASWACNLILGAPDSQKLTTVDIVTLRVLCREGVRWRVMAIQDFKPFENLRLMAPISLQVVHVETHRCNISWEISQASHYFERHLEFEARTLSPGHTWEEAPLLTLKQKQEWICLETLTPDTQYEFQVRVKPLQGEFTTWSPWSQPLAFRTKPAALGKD

B1: K2G11-Cy04 (other)
heavy: SSSTKKTQLQLEHLLLDLQMILNGINNYKNPKLTRMLTFKFYMPKKATELKHLQCLEEELGPLEEVLNLAQSKNFHLRPRDLISNIRVIVLELKGSETTFCCEYADETATIVEFLNRWITFLQSIISTLTGGGGSGGGGSGGGGSGGGGSQVQLVQSGAEVKKPGATVKISCKVSGDTITAYYMHWVRQAPGQGLEWIGRIDPDDDSTKYAENFKGRVTITADTSTDTAYMELSSLRSEDTAVYYCTTITFLYSRELRWFAYWGQGTLVTVSS
VL: DIVLTQSPATLSLSPGERATLSCQASQYISNYLSWYQQKPGQAPRLLIYSACSLASGIPARFSGSRSGTDFTLTISSLEPEDFAVYYCLQHYSTPYTFGQGTKLEIK
B2: hS4B6-H6K7 (antibody, V domains shown)
VH: QVQLVQSGAEVKKPGATVKISCKVSGDTITAYYLHWVRQAPGQGLEWIGRIDPEDDSTKYAENFKNRVTITADTSTNTAYMELSSLRSEDTAVYYCTTVTFYYSRELRWFAYWGQGTLVTVSS
VL: DIQMTQSPSSLSASVGDRVTITCQASQDIGNYLSWYQQKPGKAPKLLIHSATSLADGVPSRFSGSGSGTDFTLTISSLQPEDFATYYCLQHYSTPYTFGGGTKVEIK
notes: full antibody
B3: hS4B6-H3K3 (antibody, V domains shown)
VH: QVTLKESGPVLVKPTQTLTLTCTVSGDTITAYYLHWIRQPPGKALEWIGRIDPEDDSTKYAENFKNRLTFSADTSKNQVVLTMTNMDPVDTATYYCARVTFYYSRELRWFAYWGQGTLVTVSS
VL: B1 VL with Y28D, S30G, C52T, S56D, F71Y
notes: full antibody
B4: hS4B6-H1K1 (antibody, V domains shown)
VH: QVQLQESGPGLVKPSETLSLTCTVSGDTITAYYLHWIRQPPGKGLEWIGRIDPEDDSTKYAENFKNRVTISVDTSKNQFSLKLSSVTAADTAVYYCTTVTFYYSRELRWFAYWGQGTTVTVSS
VL: B1 VL with A9G, Y28D, S30G, C52T, S56D, A60D, F71Y, S77R, L104V
notes: full antibody
B5: IC-Cy08-DE (other)
heavy: APTSSSTKKTQLQLEHLLLDLQMILNGINNYKNPKLTRMLTFKFYMPKKATELKHLQCLEEELGCLEEVLNLAQSKNFHLRPRDLISNIRVIVLELKGSETTFMCEYADETATIVEFLNRWITFCQSIISTLTGGGGSGGGGSGGGGSGGGGSQVQLVQSGAEVKKPGATVKISCKVSGDTITAYYMHWVRQAPGQGLEWIGRIDPEDDSTKYAENFKGRVTITADTSTDTAYMELSSLRSEDTAVYYCTTVTCYYSRELRWFAYWGQGTLVTVSS
VL: B1 VL with D1E, Y28D, S30G, C52T
notes: IC-Cy08 with light chain D1E; also called H6K3(H)-Cy-08-DE
B6: IC-Cy08-QR (other)
heavy: B5 heavy
VL: B1 VL with Q27R, Y28D, S30G, C52T
notes: IC-Cy08 with light chain Q27R; also called H6K3(H)-Cy-08-QR
B7: IC-Cy08-QK (other)
heavy: B5 heavy
VL: B1 VL with Q27K, Y28D, S30G, C52T
notes: IC-Cy08 with light chain Q27K; also called H6K3(H)-Cy-08-QK; C-Cy8-QK
B8: IC-Cy08-QG (other)
heavy: B5 heavy
VL: B1 VL with Q27G, Y28D, S30G, C52T
notes: IC-Cy08 with light chain Q27G; also called H6K3(H)-Cy-08-QG
B9: IC-Cy08-QE (other)
heavy: B5 heavy
VL: B1 VL with Q27E, Y28D, S30G, C52T
notes: IC-Cy08 with light chain Q27E; also called H6K3(H)-Cy-08-QE
B10: IC-Cy08-QS (other)
heavy: B5 heavy
VL: B1 VL with Q27S, Y28D, S30G, C52T
notes: IC-Cy08 with light chain Q27S; also called H6K3(H)-Cy-08-QS
B11: IC-Cy08-QD (other)
heavy: B5 heavy
VL: B1 VL with Q27D, Y28D, S30G, C52T
notes: IC-Cy08 with light chain Q27D; also called H6K3(H)-Cy-08-QD
B12: hS4B6-H6K3-hu10 (antibody, V domains shown)
VH: B2 VH
VL: B1 VL with Y28D, S30G, C52T, S56T, F71Y
notes: H6K3 with light chain D56T
B13: hS4B6-H6K3-hu07 (antibody, V domains shown)
VH: B2 VH with N66G
VL: B1 VL with Y28D, S30G, C52T, S56D, F71Y
notes: H6K3 with heavy chain N65G
B14: hS4B6-H6K3-hu08 (antibody, V domains shown)
VH: B2 VH with N77D
VL: B1 VL with Y28D, S30G, C52T, S56D, F71Y
notes: H6K3 with heavy chain N76D; also called H6K3-huis
B15: hS4B6-H6K3-hu06 (antibody, V domains shown)
VH: B2 VH with N66S
VL: B1 VL with Y28D, S30G, C52T, S56D, F71Y
notes: H6K3 with heavy chain N65S
B16: hS4B6-H6K3-hu11 (antibody, V domains shown)
VH: B2 VH
VL: B1 VL with Y28D, S30G, C52T, S56D, R66G, F71Y
notes: H6K3 with light chain R66G
B17: hS4B6-H6K3-hu12 (antibody, V domains shown)
VH: B2 VH
VL: B1 VL with Y28D, S30G, C52T, S56D
notes: H6K3 with light chain Y71F
B18: hS4B6-H6K3-hu09 (antibody, V domains shown)
VH: B2 VH
VL: B1 VL with Y28D, S30G, C52T, F71Y
notes: H6K3 with light chain D56S

Biological target: T1, high-affinity IL2R expressed on the …
Experiment: cell-based or functional assay

In the case of B1, the “Activity in Promoting CTLL-2 Cell Proliferation (EC50, nM)” value is reported as 9.17 nM.

Biological target: T2, mIL2-his
Experiment: BLI ForteBio, Ab on Protein A sensor
Description: After each cycle of association and dissociation steps, the sensor was regenerated by 10 mM glycine buffer (pH 1.5) and then stated with the next cycle of detection. After the detection, the association rate constant and dissociation rate constant between the antibody and antigen were fitted and extrapolated using the analytical software, and the value of affinity constant (KD) was calculated.

First: B2
Second: B3
The Kd of the first is 9.4-fold lower: 1.4 nM for the first, 13.2 nM for the second. The first binds more tightly here.

With B4 the Kd was 25.9 nM.

Compared with B2, B3 is 2.2-fold higher in koff: 0.00121 s⁻¹ for the first, 0.00265 s⁻¹ for the second.

B4 gave a koff of 0.000719 s⁻¹.

Compared with B2, B3 is 4.3-fold lower in kon: 864000 M⁻¹ s⁻¹ for the first, 200000 M⁻¹ s⁻¹ for the second.

For B4, the kon was 27700 M⁻¹ s⁻¹.

Biological target: T3, hIL2Rβ (hCD122)
Experiment: ELISA (method of section 2.1.1): sample captured on coated goat anti-human IgG, hCD122 titrated; the x axis is the CD122 concentration
Description: (§1) ELISA was performed as follows: a goat anti-human IgG (Jackson Immunoresearch) was diluted to 1 μg/mL in 1×PBS and added to an ELISA plate at 100 μL/well, and then incubated at 4° C. overnight. The plate was washed with PBS and then blocked at room temperature for 1 hour after adding the blocking solution (PBST containing 1% BSA) to each well. […] The plate was washed with PBST; the HRP-labeled anti-6×His-tag secondary antibody (Proteintech) diluted at a ratio of 1:10,000 in blocking solution was then added to each well and incubated at room temperature for 1 hour. The plate was washed with PBST; the TMB chromogenic solution (Thermo) was added to each well and incubated in dark for 3-10 minutes at room temperature. The stop solution (2 M HCl) was added to each well, and OD values at a wavelength of 450-570 nm were read using a multimode microplate reader (Varioskan, Thermo).

B5: binds.
B6: binds.
B7: binds.
B8: binds.
B9: binds.
B10: binds.
B11: binds.

Biological target: T2, mIL2-his
Experiment: ELISA, antibody captured by anti-human IgG, mIL2-his titrated
Description: as §1

Going from B2 to B3, the EC50 rises from 0.0357 µg/mL to 0.185 µg/mL (5.2-fold).

For B4, the EC50 was 0.0357 µg/mL.

Biological target: T4, hIL2-DM-his (human, UniProt P60568 21-153)
T4 construct: expressed in ExpiCHO-S cells, nickel-column purified; also called hIL-2 mutein containing two point mutations K64G and N90R (with a his-tag); not shown: his-tag
Experiment: BLI ForteBio, Ab on Protein A sensor

First: B12
Second: B13
The “Binding Response (nm)” value of the first is higher: 0.172 nm for the first, 0.13 nm for the second.

Compared with B14, B15 is higher in “Binding Response (nm)” value: 0.127 nm for the first, 0.135 nm for the second.

Compared with B17, B18 is higher in “Binding Response (nm)” value: 0.152 nm for the first, 0.18 nm for the second.

First: B12
Second: B13
The Kd of the first is 1.6-fold lower: 28.3 nM for the first, 45.3 nM for the second. The first binds more tightly here.

B14 and B15 are within 1.5-fold of each other in Kd: 58.1 nM for the first, 52.5 nM for the second.

B17 and B18 are within 1.5-fold of each other in Kd: 32.3 nM for the first, 23.6 nM for the second.

Compared with B12, B13 is 1.7-fold higher in koff: 0.0106 s⁻¹ for the first, 0.0181 s⁻¹ for the second.

B14 and B15 are within 1.5-fold of each other in koff: 0.0207 s⁻¹ for the first, 0.0192 s⁻¹ for the second.

Compared with B17, B18 is 2-fold lower in koff: 0.0174 s⁻¹ for the first, 0.00867 s⁻¹ for the second.

B12 and B13 are within 1.5-fold of each other in kon: 372000 M⁻¹ s⁻¹ for the first, 400000 M⁻¹ s⁻¹ for the second.

B14 and B15 are within 1.5-fold of each other in kon: 356000 M⁻¹ s⁻¹ for the first, 365000 M⁻¹ s⁻¹ for the second.

B17 and B18 are within 1.5-fold of each other in kon: 537000 M⁻¹ s⁻¹ for the first, 367000 M⁻¹ s⁻¹ for the second.

B16: no binding (tested: 100 nM (highest antigen concentration)).
